Measured values from US20240327530A1 (ICHNOS SCIENCES, published 2024).

Tests used:
[1] = molecular target: T1, Recombinant human IL-1RAP-ECD(S21-E359)-avi-his protein (human, UniProt Q9NPH3 21-359); assay: SPR, IgG1 LALA captured by anti-human Fc, human IL-1RAP-avi-his as analyte, 1:1 fit
T1 construct: Biotinylated where loaded on streptavidin; also called human IL-1RAP-ECD-Avi-His; recombinant human IL-1RAP-avi-his protein
T1 sequence: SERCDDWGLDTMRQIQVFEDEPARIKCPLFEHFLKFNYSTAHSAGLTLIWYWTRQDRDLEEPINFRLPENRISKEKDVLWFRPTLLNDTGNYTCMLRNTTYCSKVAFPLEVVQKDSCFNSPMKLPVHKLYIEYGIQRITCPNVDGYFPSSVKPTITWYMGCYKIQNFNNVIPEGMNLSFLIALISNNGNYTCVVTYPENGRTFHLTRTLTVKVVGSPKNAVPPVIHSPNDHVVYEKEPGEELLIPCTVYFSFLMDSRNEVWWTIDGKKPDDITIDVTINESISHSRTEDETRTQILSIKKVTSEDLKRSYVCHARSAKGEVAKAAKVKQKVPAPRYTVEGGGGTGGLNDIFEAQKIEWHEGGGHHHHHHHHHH
Description: Surface plasmon resonance (SPR) was used to measure the binding affinities of the human IgG1 LALA molecules for human and cynomolgus monkey IL-1RAP. Affinities were measured on a BIACORE™ T200 instrument (BIACORE™, GE […]®) at 25° C. and analyzed with the BIACORE™ T200 Evaluation Software (v3.1). Measurements were performed on Series S CM5 sensor chips (BIACORE™ T200, BIACORE™, GE […]®, catalog no. BR100530) coupled with anti-human IgG Fc (BIACORE™, GE […]®, catalog no. BR100839) using a commercial amine coupling kit (BIACORE™, GE […]®, catalog no. BR100050). SPR measurements were performed with recombinant human IL-1RAP-avi-his protein produced in house (SEQ ID NO. 1) or recombinant cynomolgus monkey IL-1RAP-avi-his protein produced in house (SEQ ID NO. 2). The affinities to human and cynomolgus monkey IL-1RAP were assessed by immobilizing anti-IL-1RAP IgG1 LALA molecules and using IL-1RAP proteins as analyte. Around 150 RU of human IgG1 LALA were captured on fc2 of a Series S CM5 sensor chip coupled with anti-human IgG Fc. Recombinant human IL-1RAP-avi-his protein or recombinant cynomolgus monkey IL-1RAP-avi-his protein was injected in multi cycle kinetic at different concentrations ranging from 0.14 to 100 nM, in HBS-EP+ buffer (BIACORE™, GE […]®, catalog no. BR100669) at a flow rate of 30 μl/min for 3 min on fc1 and fc2 (fc1 being used as reference). Dissociation was monitored for 12 min. After each cycle, the surface was regenerated with 60 μl of regeneration solution provided with anti-human IgG Fc capture kit (BIACORE™, GE […]®, catalog no. BR100839). Experimental data were processed using the 1:1 Langmuir kinetic fitting model. Measurements included zero-concentration samples for referencing. Chi², U- and residual values were used to evaluate the quality of a fit between the experimental data and individual binding models.

[2] = molecular target: T1, Recombinant human …; assay: SPR, IgG1 LALA captured on anti-human IgG Fc CM5 chip, human IL-1RAP-avi-his as analyte in a concentration series, 1:1 fit, one representative replicate
Description: Anti-IL-1RAP-C8-RecC-ES IgG1 LALA was immobilized on a Series S CM5 sensor CHIP coupled with anti-human IgG Fc. Human IL-1RAP-avi-his or cynomolgus monkey IL-1RAP-avi-his was injected over immobilized IgG1 LALA in concentration series in HBS-EP+ buffer. One representative replicate for human IL-1RAP and cynomolgus monkey IL-1RAP is presented. Plots are showing data expressed as number of resonance units (abbreviated RU; Y axis) vs. time (s, X axis). Dotted lines represent the measured data while solid lines represent simulated fits. KD: equilibrium dissociation constant; Ka: association constant; Kd: dissociation constant.
Surface plasmon resonance (SPR) was used to measure the binding affinities of the human IgG1 LALA molecules for human and cynomolgus monkey IL-1RAP. Affinities were measured on a BIACORE™ T200 instrument (BIACORE™, GE […]®) at 25° C. and analyzed with the BIACORE™ T200 Evaluation Software (v3.1). Measurements were performed on Series S CM5 sensor chips (BIACORE™ T200, BIACORE™, GE […]®, catalog no. BR100530) coupled with anti-human IgG Fc (BIACORE™, GE […]®, catalog no. BR100839) using a commercial amine coupling kit (BIACORE™, GE […]®, catalog no. BR100050). SPR measurements were performed with recombinant human IL-1RAP-avi-his protein produced in house (SEQ ID NO. 1) or recombinant cynomolgus monkey IL-1RAP-avi-his protein produced in house (SEQ ID NO. 2). The affinities to human and cynomolgus monkey IL-1RAP were assessed by immobilizing anti-IL-1RAP IgG1 LALA molecules and using IL-1RAP proteins as analyte. Around 150 RU of human IgG1 LALA were captured on fc2 of a Series S CM5 sensor chip coupled with anti-human IgG Fc. Recombinant human IL-1RAP-avi-his protein or recombinant cynomolgus monkey IL-1RAP-avi-his protein was injected in multi cycle kinetic at different concentrations ranging from 0.14 to 100 nM, in HBS-EP+ buffer (BIACORE™, GE […]®, catalog no. BR100669) at a flow rate of 30 μl/min for 3 min on fc1 and fc2 (fc1 being used as reference). Dissociation was monitored for 12 min.

B1: Anti-IL-1RAP-C8-RecC-ES-IgG1LALA (antibody, V domains shown)
VH: QVQLVQSGAEVKKPGSSVKVSCKASGSPAEPYAIQWVRQAPGQGLEWMGYIIPSLGGYDYAQKFQGRVTITADESTSTAYMELSSLRSEDTAVYYCARGQTLYESGRQFDIWGQGTLVTVSS
VL: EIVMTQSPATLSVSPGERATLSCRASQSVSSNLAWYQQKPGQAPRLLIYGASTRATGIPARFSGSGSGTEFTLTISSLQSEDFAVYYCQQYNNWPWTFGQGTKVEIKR
notes: also called ISB 880-C8-recC-ES
- Kd [1]: 0.251 nM
- koff [1]: 0.000172 s⁻¹
- kon [1]: 693000 M⁻¹ s⁻¹
- Kd [2]: 0.267 nM
- koff [2]: 0.000169 s⁻¹
- kon [2]: 633000 M⁻¹ s⁻¹
